In the RNAGym collection of RNA variant scans (doi:10.7554/elife.90254):

B1: OR4K15 (parent)
chain: GUUAACGGUCAUAGGCCAUGGAAACUAGGAGCACCAUUUCGCUGCCAGUGAAGAAAUGAACAAAGAAAAUCUGGGCCAGGCAGGCAUCAAAAGAAAUAGUCUUGCGCUCAACCAGAAAGUCUGUAAUCAUUUUAAGGGUA

Variants of: B1
Experiment: self-cleavage, relative activity (ratio to wild type); higher = more cleavage; in vitro, sequencing; the parent is a self-cleaving ribozyme

| Variant | self-cleavage |
| --- | --- |
| GUUAACGGUCAUAGGCCAUGGAAACUAGGAGCACCAUUUCGCUGCCAGUGAGGAAAUGAACAAAGAAAAUCUGGGCCAGGCAGGCAUCAAAAGAAAUAGUCUUGCGCUCAACCAGAAAGUUUGUAAUCAUUUUAAGGGUA [A52G C121U] | 1.18 |
| GUUAACGGUCAUAGGCCAAGGAAACUAGGAGCACCAUUUCGCUGCCAGAGAAGAAAUGAACAAAGAAAAUCUGGGCCAGGCAGGCAUCAAAAGAAAUAGUCUUGCGCUCAACCAGAAAGUCUGUAAUCAUUUUAAGGGUA [U19A U49A] | 1.05 |
| GUUAACGGUCAUAGGCCAUGGAAACUAGGAGCACCAUUUCGCUGCCAGUGAAGAAAUGAACAAAGAAAAUCUGGGCCAGGCAGGCAUCAAAAGAAAUAGUCUUGCGCUCGACCAGAAAGUCUGUAAUCAUUUCAAGGGUA [A110G U133C] | 0.25 |
| GUUAACGGUCAUAGGCCAUGGAAACUAGGAGCACCAUUUCGCUACCAGUGAAGAAAUGGACAAAGAAAAUCUGGGCCAGGCAGGCAUCAAAAGAAAUAGUCUUGCGCUCAACCAGAAAGUCUGUAAUCAUUUUAAGGGUA [G44A A59G] | 1.56 |
| GUUAACGGUCAUAGGCCAUGGAAACUAGGAGCACCAUUUCGCUGCCAGUGAAGAAAUGAACAAUGAAAAUCUGGGCCAGGCAGGCAUCAAAAGAAAUAGUCUAGCGCUCAACCAGAAAGUCUGUAAUCAUUUUAAGGGUA [A64U U103A] | 1.08 |
| GUUAACGGUCAUAGGCCUUGGAAACUAGGAGCACCAUUUCGCUGCCAGUGAGGAAAUGAACAAAGAAAAUCUGGGCCAGGCAGGCAUCAAAAGAAAUAGUCUUGCGCUCAACCAGAAAGUCUGUAAUCAUUUUAAGGGUA [A18U A52G] | 1.7 |
| GUUAACGGUCAUAGGCCAUGGAAACUGGGAGCACCAUUUCGCUGCCAGUGAAGAAAUGAACAAAGAAAAUCUGGGCCAGGCAGGCAUCAAAAGAAAUAGUCUUGCGCUCAACCAGAAAGUCUGCAAUCAUUUUAAGGGUA [A27G U124C] | 0.9 |
| GUUAACGGUCAUAGGCCAUGGAAACUAGGAGCACCAUUUCGCUGCCAGUGAAGAGAUGAACAAAGAGAAUCUGGGCCAGGCAGGCAUCAAAAGAAAUAGUCUUGCGCUCAACCAGAAAGUCUGUAAUCAUUUUAAGGGUA [A55G A67G] | 1.21 |
| GUUAACGGUCAUAGGCCAUGGAAACUAGGAGCACCAUUUCGCUGCCAGUGAAGAAAUGAACAAAGAAAAUCUGGGCCAGGCAGGCAUCAAAAGAAAUAGUCUUGCGCUCAACCAGAAAGUCUGUAAUCAUUUCAGGGGUA [U133C A135G] | 0.03 |
| GUUAACGGUCAUAGGCCAUGGAAACUAGGAGCACCAUUUCGCUGCCAGUGAAGAAAUGAACAAGGAAAAUCUGGGCCAGGCAGGCAUCAAAAGAAAUAGUCUUGCGCUCAACCAGAAAGUCUGUACUCAUUUUAAGGGUA [A64G A126C] | 1.16 |
| GUUAACGGUCAUAGGCCAUGGAAACUAGGAGCACCACUUCGGUGCCAGUGAAGAAAUGAACAAAGAAAAUCUGGGCCAGGCAGGCAUCAAAAGAAAUAGUCUUGCGCUCAACCAGAAAGUCUGUAAUCAUUUUAAGGGUA [U37C C42G] | 1.69 |
| GUUAACGGUCAUAGGCCUUGGAAACUAGGAGCACCAUUUCGCUGCCAGUGAAGAAAUGAACAAAGAAAAUCUGGGCCAGGCAGGCAUCAAAAGAACUAGUCUUGCGCUCAACCAGAAAGUCUGUAAUCAUUUUAAGGGUA [A18U A96C] | 1.02 |
| GUUAACGGUCAUAGGCCAUGGAAACUAGGAGCACCAUUUCGCUGCCAGUGAGGAAAUGAACAAAGAAAAUCUGGGCCUGGCAGGCAUCAAAAGAAAUAGUCUUGCGCUCAACCAGAAAGUCUGUAAUCAUUUUAAGGGUA [A52G A78U] | 0.47 |
| GUUAACGGUCAUAGGCCAUGGAAACUAGGAGCACCAUUUCGCUGCCAGUGAAGAAAUGAACAAAGAAUAUCUGGGCCAGGCAGGCAUCAAAAGAAAGAGUCUUGCGCUCAACCAGAAAGUCUGUAAUCAUUUUAAGGGUA [A68U U97G] | 1.94 |
| GUUAACGGUCAUAGGCCAUGGAAACUAGGAGCACCAUUUCGCUGCCAGUGAAGAAAUGAACAAAGGAAAUCUGGGCCAGGCAGGCAUCAAAAGAAAUAGUCUUGCGCUCAACCAGAAAGACUGUAAUCAUUUUAAGGGUA [A66G U120A] | 1.73 |
| GUUAACGGUCAUAGGCCAUGGAAACUAGGAGCACCAAUUCGCUGCCAGUGAAGAAAUGAACAAAGAAAAUCUGGGCCAGGCAGGCAUCAAAAGAAAUGGUCUUGCGCUCAACCAGAAAGUCUGUAAUCAUUUUAAGGGUA [U37A A98G] | 1.07 |
| GUUUACGGUCAUAGGCCAUGGAAACUAGGAGCACCAUUUCGCUGCCAGUGAAGAAAGGAACAAAGAAAAUCUGGGCCAGGCAGGCAUCAAAAGAAAUAGUCUUGCGCUCAACCAGAAAGUCUGUAAUCAUUUUAAGGGUA [A4U U57G] | 0.74 |
| GUUAACGGUCAUAGGCCAUGGAAACUAGGAGCACCAUUUCGCUGCCAGUGACGAAAUGAACAAAGAAAAUCUGGGCCAGGCAGGCAUCAAAAGAAAUAGUCUUGCGCUCAACCAGGAAGUCUGUAAUCAUUUUAAGGGUA [A52C A116G] | 0.64 |
| GUUAACGGUCAUAGGCCAUGGGAACUAGGAGCACCAUUUCGCUGCCAGUGAAGAAAUGAACAAAGAAAAUCUGGGCCAGGCAGGCAUCAAAAGAAAUAGUCUUGCGCUCAACCAGGAAGUCUGUAAUCAUUUUAAGGGUA [A22G A116G] | 0.57 |
| GUUAACGGUCAUAGGCCAUGGAAACUAGGGGCACCAUUUCGCUGCCAGUGAAGAAAUGAACAAAGAAAAUCUGGGCCAGGCAGGCAUCAAAAGAAAUAGUCUUGCGCUCAACCAGAAAAUCUGUAAUCAUUUUAAGGGUA [A30G G119A] | 2.01 |
| GUUAACGGUCAUAGGCCAUGGAAACUAGGAGCACCAUUUCGCUGCCAGUGAAGAAAUGAACAAAGAAAAUCUGGGCCAGGCAGGCGUCAAAAGAAAUAGUCUUGCGCUCAACCAGAAAGUCUGUAGUCAUUUUAAGGGUA [A86G A126G] | 1.18 |

| Variant | self-cleavage |
| --- | --- |
| GUUAACGGUCAUAGGCCAUGGAAACUAGGAGCACCAUUUCGCUGCCAGUGAAGAAAUGAACAAAGAAAAUCUGGGCCAGGCAGGCACCAAAAGAAAUAGUCUUGCGCUCAACCAGAAAGUCUGUGAUCAUUUUAAGGGUA [U87C A125G] | 0.41 |
| GUUAAGGGUCAUAGGCCAUGGAAACUAGGAGCACCAUUUCGCUGCCAGUGAAGAAAUGAACAAAGAAAAUCUGGGCCAGGCAGGCAUCAAAAGAAAUAGUCUUGCGCUCAACCAGAAAGUCUGUAGUCAUUUUAAGGGUA [C6G A126G] | 1.2 |
| GUUAACGGUCAUAGGCCAUGGAAACUAGGAGCACCAUUUCGCUGCCAGUGAAGAAAUGAACAAAGAAAAUCUGGGCCAGGCAGGCAUCAAAAGAAAUAGUCUUGCGCUCAACCAGAAAGCCCGUAAUCAUUUUAAGGGUA [U120C U122C] | 0.32 |
| GUUGACGGUCAUAGGCCAUGGAAACUAGGAGCACCAUUUCGCUGCCAGUGAAGAAAUGAACAAAGAAAAUCUGGGCCAGGCAGGCAUCAAAAGAAAUAGUCCUGCGCUCAACCAGAAAGUCUGUAAUCAUUUUAAGGGUA [A4G U102C] | 1.36 |
| GCUAACGGUCAUAGGCCAUGGAAACUAGGAGCACCAUUUCGCUGCCAGUGAAGAAAUGAACAAAGAUAAUCUGGGCCAGGCAGGCAUCAAAAGAAAUAGUCUUGCGCUCAACCAGAAAGUCUGUAAUCAUUUUAAGGGUA [U2C A67U] | 0.85 |
| GUUAACGGUCAUAGGCCAUGGAAACUAGGAGCCCCAUUUCGCUGCCAGUGAAGAAAUGAACAAAGGAAAUCUGGGCCAGGCAGGCAUCAAAAGAAAUAGUCUUGCGCUCAACCAGAAAGUCUGUAAUCAUUUUAAGGGUA [A33C A66G] | 1.88 |
| GUUAACGGUCAUAGGCCAUGGAAACUAGGAGCACCAUUACGCUGCCAGUGAAGAAGUGAACAAAGAAAAUCUGGGCCAGGCAGGCAUCAAAAGAAAUAGUCUUGCGCUCAACCAGAAAGUCUGUAAUCAUUUUAAGGGUA [U39A A56G] | 1.59 |
| GUUAACGGUCAUAGGCCAUGGAAACUAGGAGCACCAUUUCGCUGCCAGUGAAGAAAUGAACAAAGAAAUUCUGGGCCAGGCAGGCAUCAAAAGAAAUAGUCUAGCGCUCAACCAGAAAGUCUGUAAUCAUUUUAAGGGUA [A69U U103A] | 1.87 |
| GUUAACGGUCAUAGGCCAUGGAAACUAGGAGCACCAUUUCGCUGCCAGUGAAGAAAUGAACAAAGAAAAUCUGGGCCAGGCAGGCAUCAAAAGAAAUAGUCUUGCGCUCAACCUGAAAGUCUGUAAUCAUUUUAGGGGUA [A114U A135G] | 0.05 |
| GUUAACGGUCAUAGGCCAUGGAAACUAGGAGCACCAUUUCGCUGCCAGUGGAGAAAUGAACAAAGAAAAUCUGGGCCAGGCAGGCAUCAACAGAAAUAGUCUUGCGCUCAACCAGAAAGUCUGUAAUCAUUUUAAGGGUA [A51G A91C] | 1.97 |
| GUUAACGGUCAUAGGCCAUGGAAACUAGGAGCACCAUUUCGCUGCCAGUGAAGAAAUGAACAAAGAAGAUCUGGGCCAGGCAGGCAUCAAAAGAAAUAGUCUUGCGCUCAACCAGGAAGUCUGUAAUCAUUUUAAGGGUA [A68G A116G] | 0.8 |
| GUUAACGGUCAUAGGCCAUGGAAACUAGGAGCACCAUUUCGCUGCCAGUGAAGAAAUGAACAAAGAAAAUCUGGGCCAGGCAGGCAUCAAAAGAAAUAGUCUUGCGCUCAACCAGAAAGUCUGUAAUCAUUCCAAGGGUA [U132C U133C] | 1.1 |
| GUUAACGGUCAUAGGCCAUGGAAACUAGGAGCGCCAUUUCGCUGCCAGUGAAGCAAUGAACAAAGAAAAUCUGGGCCAGGCAGGCAUCAAAAGAAAUAGUCUUGCGCUCAACCAGAAAGUCUGUAAUCAUUUUAAGGGUA [A33G A54C] | 0.95 |
| GUUAACGGUCAUAGGCCAUGGAAACUAGGAGCACCAUUUCGCUGCCAGUGAAGAAAUGAACAAAGAAAAUCUGGGCCAGGCAGGCAUCAAAAGGAAUGGUCUUGCGCUCAACCAGAAAGUCUGUAAUCAUUUUAAGGGUA [A94G A98G] | 0.27 |
| GCUAACGGUCAUAGGCCAUGGAAACUAGGAGCACCAUUUCGCUGCCAGUGAAGAAAUGAACAAAGAAAAUCUGUGCCAGGCAGGCAUCAAAAGAAAUAGUCUUGCGCUCAACCAGAAAGUCUGUAAUCAUUUUAAGGGUA [U2C G74U] | 0.08 |
| GUUAACGGUCAUAGGCCAUGGAAACUAGGUGCACCAUUUCGCUGCCAGUGAAGAAAUGAACAAAGAAGAUCUGGGCCAGGCAGGCAUCAAAAGAAAUAGUCUUGCGCUCAACCAGAAAGUCUGUAAUCAUUUUAAGGGUA [A30U A68G] | 1.62 |
| GUUAACGGUCAUAGGCCAUGGAAACUAGGAGCACCAUUUCGCUGCCAGUGAAGAAGUGAACAGAGAAAAUCUGGGCCAGGCAGGCAUCAAAAGAAAUAGUCUUGCGCUCAACCAGAAAGUCUGUAAUCAUUUUAAGGGUA [A56G A63G] | 0.85 |
| GUUAACGGUCAUAGGCCAUGGAAACUAGGAGCACCAUUUCGCUGCCAGUGGAGAAAUGAACAAAGAAAAUCUGGGCCAGGCAGGCAUCAAAAGAAAUUGUCUUGCGCUCAACCAGAAAGUCUGUAAUCAUUUUAAGGGUA [A51G A98U] | 2.81 |
| GUUAACGGUCAUAGGCCAUGGAAACUAGGAGCACCAUUUCGCUGCCAGUGAAGAAAUGAACAAAGAAAAUCUGGGCCAGGCAGGCAUCAAAAGAAAUAGUCUUGCGCUCAACCAGAAGGUCUGUAAACAUUUUAAGGGUA [A118G U127A] | 1.26 |
| GUUAACGGUCAUAGGCCAUGGAAUCUAGGAGCACCAUUUCGCUGCCAGUGAGGAAAUGAACAAAGAAAAUCUGGGCCAGGCAGGCAUCAAAAGAAAUAGUCUUGCGCUCAACCAGAAAGUCUGUAAUCAUUUUAAGGGUA [A24U A52G] | 1.32 |
